Source: patent US20200109196A1 (MOGAM INSTITUTE FOR BIOMEDICAL RESEARCH, published 2020)
Positions count from the first letter of the chain named. Each block holds one binder with its values, some of them ahead of it.

Legend:
[1] = biological target: T1, recombinant human CEACAM-3/CD66d protein (Sino Biological; Cat. No. 11933-H08H) (human, UniProt P40198 35-155); assay: ELISA on coated antigen (0.25 µg/ml), HRP anti-human IgG Fc, OD450
T1 construct: Bought protein; also called HCCM3
T1 sequence (looked up): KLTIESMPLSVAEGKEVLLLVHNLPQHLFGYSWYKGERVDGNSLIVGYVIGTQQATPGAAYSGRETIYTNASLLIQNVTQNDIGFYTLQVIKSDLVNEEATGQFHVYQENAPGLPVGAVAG
Description: All of the recombinant human CEACAM-1/CD66a protein (R&D systems; Cat No. 2244-CM, HCCM1), recombinant human CEACAM-5/CD66e protein (R&D systems; Cat. No. 4128-CM, HCCM5), recombinant human CEACAM-6/CD66c protein (R&D systems; Cat. No. 3934-CM, HCCM6), recombinant human CEACAM-3/CD66d protein (Sino Biological; Cat. No. 11933-H08H, HCCM3), human B7-H5/Gi24/VISTA protein (Sino Biological; Cat. No. 13482-H08H, HVISTA), recombinant human CEACAM-1/CD66a protein Bulk (R&D systems; Cat. No. 2244-CM, HCCM1 (bulk)), recombinant human CEACAM1-N domain-Kappa protein (Mogam, in-house production, HCCM1-N domain-kappa), and BSA protein (2.5 μg each) were dissolved in 10 ml of PBS, respectively, and dispensed into a 96-well plate at 100 μl/well, which was incubated at 4° C. overnight. Thereafter, each well was treated with 300 μl of 1% (v/v) bovine serum albumin, and incubated at 37° C. for 1 hour.
The diluted antibodies were dispensed into each well coated with each protein at 100 μl/well, and incubated at 37° C. for 1 hour. Then, each well was washed 3 times with a washing buffer prepared by diluting 10 μl of Tween 20 (Sigma-Aldrich; Cat. No. P9146) in 990 μl of PBS. Thereafter, 2 μl of HRP-conjugated human anti-IgG-Fc antibody (anti-human IgG Fc, Sigma Cat. No. A0170) was diluted in 10 ml of PBS, added to the wells at 100 μl/well, and incubated for 1 hour.
After completion of the reaction, the wells were washed three times with the washing buffer, and 100 μl of TMB solution was added to each well to induce color development. Then, 100 μl of 2 M H₂SO₄ was added to each well to stop the reaction, and the absorbance was measured at a wavelength of 450 nm.

[2] = biological target: T2, recombinant human CEACAM-1/CD66a protein (R&D systems; Cat. No. 2244-CM) (human, UniProt P13688 35-428); assay: ELISA on coated recombinant CEACAM-1/CD66a (0.25 µg/ml), HRP anti-human IgG, OD450
T2 construct: Bought protein; captured on anti-His (His1K) biosensors in the Octet assay, so it carries a His tag; also called HCCM1; recombinant CEACAM-1/CD66a protein
T2 sequence (looked up): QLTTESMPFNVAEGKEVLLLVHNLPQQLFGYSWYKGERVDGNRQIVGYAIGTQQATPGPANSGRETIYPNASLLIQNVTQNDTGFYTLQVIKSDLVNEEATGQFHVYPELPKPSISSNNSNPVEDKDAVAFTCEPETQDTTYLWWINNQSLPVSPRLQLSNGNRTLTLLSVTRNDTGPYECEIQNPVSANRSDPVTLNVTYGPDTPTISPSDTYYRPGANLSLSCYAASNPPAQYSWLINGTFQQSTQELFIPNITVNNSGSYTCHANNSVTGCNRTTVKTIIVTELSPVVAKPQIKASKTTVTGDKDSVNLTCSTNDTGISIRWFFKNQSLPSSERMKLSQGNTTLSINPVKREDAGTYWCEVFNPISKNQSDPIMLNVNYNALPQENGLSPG
Protocol: Also, 2.5 μg of the recombinant CEACAM-1/CD66a protein (R&D systems; Cat. No. 2244-CM) was dissolved in 10 ml of PBS, and dispensed into 96-well plate (Nunc; Cat. No. 467679) at 100 μl/well and incubated overnight at 4° C. Thereafter, 300 μl of 1% (v/v) bovine serum albumin was added to each well, which was incubated at 37° C. for 1 hour.
Each of the diluted antibodies was subjected to serial dilutions in PBS at a 1:1 volume ratio for 6 times. Each of the antibodies diluted to 7 concentrations was dispensed into each well at 100 μl/well, which was incubated at 37° C. for 1 hour. Then, each well was washed 3 times with a washing buffer prepared by diluting 10 μl of Tween 20 (Sigma-Aldrich; Cat. No. P9146) in 990 μl of PBS. Thereafter, 2 μl of human IgG conjugated with HRP was diluted in 10 ml of PBS, which was then dispensed into each well at 100 μl/well and incubated for 1 hour.

B2: C18 (antibody, human IgG4 S228P, lambda, V domains shown)
VH: EVQLLESGGGLVQPGGSLRLSCAASGFTFSNYDMSWVRQAPGKGLEWVSGISHSSGSKYYADSVKGRFTISRDNSKNTLYLQMNSLRAEDTAVYYCARDPLPCLIPKCSYYYAMDVWGQGTLVTVSS
VL: QSVLTQPPSAPGTPGQRVTISCSGSSSNIGSNAVTWYQQLPGTAPKLLIYADSHRPSGVPDRFSGSKSGTSASLAISGLRSEDEADYYCGSWDDSLNAYVFGGGTKLTVLG
binding result [1]: no binding (tested: 3 µg/ml (single concentration))

B5: C25 (antibody, human IgG4 S228P, lambda, V domains shown)
VH: EVQLLESGGGLVQPGGSLRLSCAASGFTFSNYAMSWVRQAPGKGLEWVSVISHGGGSIYYADSVKGRLTISRDNSKNTLYLQMNSLRAEDTAVYYCARDPTKGYAPTFDYWGQGTLVTVSS
VL: B2 VL with P11S, S31N, A33Y, T35S, H54K, S91A, D94A, A98G
notes: Made in ExpiHEK293F cells, protein A purified. huIgG4 is the isotype control and anti-huIgG4 the detection reagent; the isotype is not otherwise stated; also called anti-CEACAM1 antibody C25
EC50 (read off the curve) [2]: ~0.2 µg/mL

Further lines, with some results ahead:

binding result [2]: binds
B1: C15 (antibody, human IgG4 S228P, lambda, V domains shown)
VH: EVQLLESGGGLVQPGGSLRLSCAASGFTFSSYSMSWVRQAPGKGLEWVSSISPNGGNKYYADSVKGRFTISRDNSKNTLYLQMNSLGAEDTAVYYCAKDPYNIYQPLFDYWGQGTLVTVSS
VL: QSVLTQPLSASGTPGQRVTISCSGSSSNIGNNYVNWYQQLPGTAPKLLIYANSNRPSGVPDRFSGSKSGTSASLAISGLRSEEEADYYCGTWDASLSAYVFGGGTKLTVLG
binding result [1]: no binding (tested: 3 µg/ml (single concentration))

binding result [2]: binds
B3: C17 (antibody, human IgG4 S228P, lambda, V domains shown)
VH: EVQLLESGGGLVQPGGSLRLSCAASGFTFSDYSMSWVRQAPGKGLEWVSVIYPDDGNTYYADSVKGRFTISRDNSKNTLYLQMNSLRAEDTAVYYCARGSIWWLSLIPSSYNAMDVWGQGTLVAVSS
VL: B1 VL with L8P, Y33A, N54H, E83D, T91A, S97N, A98G
binding result [1]: no binding (tested: 3 µg/ml (single concentration))

EC50 (read off the curve) [2]: ~0.3 µg/mL
B4: C26 (antibody, human IgG4 S228P, lambda, V domains shown)
VH: EVQLLESGGGLVQPGGSLRLSCAASGFTFSGYDMSWVRQAPGKGLEWVSWISYGGGSIYYADSVKGRFTISRDNSKNTLYLQMNSLRAEDTAVYYCAKDRLPQKAVRHSYANGMDVWGQGTLVTVSS
VL: B2 VL with P11S, S31N, A33Y, S91A, D94Y, N97S, A98G
